Laboratory results published in patent US9856300B2, “Dpy-30 binding peptides and methods of use” (Marquette University, priority 2011, dated 2018).
No end group written: not given here.

Experiments:
Dpy-30 [1] = biological target: T1, Dpy-30 (Homo sapiens, UniProt Q9C005); test: Ni-NTA pulldown of GST-tagged RSP3 peptides with His-tagged human Dpy-30 protein; assay type: binding; design: made in house; host or cells: E. coli BL21(DE3), co-expressed with the GST-RSP3 peptides; conditions: full-length human His-Dpy-30 co-expressed with GST-RSP3 peptide
T1 sequence (Q9C005 whole entry, the tested form may be a part): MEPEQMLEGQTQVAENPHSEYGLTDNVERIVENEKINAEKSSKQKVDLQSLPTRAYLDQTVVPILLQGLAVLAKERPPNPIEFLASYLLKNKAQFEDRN
Description: (§1) Based on the phenotypes of RSP3 transgenic strains (FIG. 4), an in vitro approach was taken to test that RSP3269-316 contains a Dpy-30 domain binding site. RIIa-binding AHs are 14-18-a.a. long. Some of AHs are clearly comprised of ΦΦXX repeats in which the first two residues are hydrophobic residues (Φ) positioned to interact with complementary residues at the binding grooves of the RIIa domain (Burns-Hamuro et al., 2003; Kinderman et al., 2006; Sarma et al., 2010), whereas for the other RIIa-binding AHs the repeats are not as evident (Gold et al., 2006; Gaillard et al., 2001). Typical ΦΦXX repeats were noted within the Dpy-30 binding fragment in BIG1 at the trans-Golgi network but were not tested yet (Xia et al., 2010). For RSP3269-316, typical and degenerate ΦΦXX repeats are present throughout this region, thus the precise Dpy-30 binding site was determined objectively by Ni-NTA pulldown. As a control, the His-tagged RIIa domain from RSP7 was co-expressed with the GST-tagged RSP396-180 that harbors AHR at a.a.#161-178 (Gaillard et al., 2001; FIG. 3) and both polypeptides were co-purified by Ni-NTA (FIG. 7A). Various Dpy-30 domain containing RSP2 and RSP23 polypeptides were tested but were not compatible for this assay due to poor expression or precipitation propensity. Therefore we used the His-tagged human Dpy-30 protein for Ni-NTA pulldown instead. As expected, both GST-RSP3245-316 and GST-RSP3269-316 were co-purified with His-Dpy-30 by Ni-NTA (FIGS. 7B and 7C). In contrast, the GST control was not co-purified (FIG. 7D).
The experiments were further conducted on smaller segments within a.a.#269-316. GST-RSP3280-316 and GST-RSP3280-308, but not GST-RSP3280-306, were also pulled down by His-Dpy-30 (FIG. 7E, left panel). […] To ensure that the co-purification occurs through the Dpy-30 domain rather than its flanking sequence, the same experiment was conducted with the Dpy-30 domain only (Dpy-3045-99, Wang et al., 2009). The results from the experiments using Dpy-30 domain alone or full-length Dpy-30 protein were similar (FIG. 7E, right panel). Based on the similar dimensions of the RIIa and Dpy-30 domains (FIG. 1), we tested if the Dpy-30 binding peptide is centered on the 18-a.a. helix at the a.a.#291-308 by mutating V300 in the middle of the region into P, a strategy used to study AHR (Gaillard et al., 2001; Carr et al., 1992). […] RSP3291-308.
For Ni-NTA (Qiagen) affinity co-purification, GST-tagged RSP3 constructs and His-tagged HDpy-30 constructs were co-transformed into BL21(DE3) cells. The recombinant proteins were induced using 1 mM IPTG overnight at 16° C. Following induction, the cell pellet from a 5-ml culture was resuspended in 750 μl lysis buffer and sonicated using Branson digital Sonifier (Emerson Industrial Automation). The sonicated mixtures were centrifuged at 4° C., 12,000 rpm for 25 min. The supernatant was incubated with 100 μl Ni-NTA for 1 hour at room temperature. The matrix was subsequently washed thrice and elution was carried out as instructed by the manufacturer.

RIIa domain from RSP7 = test: Ni-NTA pulldown with His-tagged RIIa domain from RSP7; assay type: binding, Chlamydomonas; conditions: co-expressed in bacteria
Description: as §1
Based on the structural similarity, we tested for the cross-recognition of His-Dpy-30 and AHR (GST-RSP3g); and RSP7's RIIa and AHD (GST-RSP3280-308) by the described Ni-NTA pulldown assay. […] Thus Dpy-30 that has a deep pocket from an additional α-helix recognizes both AHR and AHD, whereas RSP7's RIIa, as PKA's RII, only binds RSP3's AHR(Gaillard et al., 2001). […]

Dpy-30 D/D (a.a. #49-99) = biological target: T2, Dpy-30 D/D (a.a. #49-99) (Homo sapiens, UniProt Q9C005); test: Ni-NTA pulldown of GST-hAsh2 peptides with His-Dpy-30 D/D; assay type: binding; conditions: His-Dpy-30 D/D a.a. #49-99 co-expressed
T2 construct: His-Dpy-30 D/D (a.a. #49-99) was co-expressed with GST-hAsh2593-623; made in house; host or cells: E. coli BL21(DE3)
T2 sequence (Q9C005 49-99): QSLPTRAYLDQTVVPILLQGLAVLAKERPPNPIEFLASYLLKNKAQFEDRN
Description: To differentiate if the interaction is via the Dpy-30 domain or the N-terminal fragment, His-Dpy-30 D/D (a.a. #49-99) was co-expressed with GST-hAsh2593-623 (FIG. 11C). To define the N-terminal end of Dpy-30 D/D binding site in hAsh2, W599 in the first potential ΦΦXX motif was mutated into P to disrupt helicity, an approach to abolish D/D-binding (Carr et al., 1982; Burns-Hamuro et al., 2003). […] Thus, the site that directly binds Dpy-30 D/D resides within hAsh2600-617 that is after W599 and contains four ΦΦXX-like motifs, even though an acidic residue occupies a supposedly hydrophobic position in the last motif, VETE (SEQ ID NO:35). The affinity may be further enhanced by adjacent sequences (Burns-Hamuro et al., 2003; Banky et al., 2003).
(§2) All expression constructs were transformed or co-transformed into BL21(DE3) cells. The colonies were selected based on the antibiotic-resistant gene in each plasmid. The cultures were induced with 1 mM IPTG overnight at 18° C. The cell pellet from a 5-ml culture was resuspended in 750-μl lysis buffer supplemented with Complete Mini EDTA-free protease inhibitor cocktail tablets (Roche) and the suspension was sonicated on ice using Branson digital Sonifier until clarified (Emerson Industrial Automation). The sonicated mixtures were centrifuged at 4° C., 12,000 rpm for 25 min. The supernatant or combinations of supernatants as indicated were incubated with ˜100 μl Ni-NTA (Qiagen or Clontech) or Glutathione Sepharose 4B (Amersham Biosciences) for 1 hour at room temperature. The matrix was subsequently washed as instructed by manufacturers, unless indicated otherwise.
(§3) Bacterial extract, flow through and eluate in 1× Laemmli samples buffer were boiled for 5 min. In general, 10 μl samples were loaded in each lane in 4-20% precast acrylamide gels (Bio-Rad or DGEL Electrosystem, Canada) or 14% manually cast gels.

Dpy-30 [2] = biological target: T1, Dpy-30; test: Ni-NTA pulldown of GST-hAsh2 peptides with His-Dpy-30; assay type: binding; design: Dpy-30 fragments, full length or a.a.#49-99, were amplified using purchased IMAGE cDNA clone #4081996 as a template; made in house; host or cells: E. coli BL21(DE3); key to co-purified with Dpy-30: “+” or “−” indicates if the peptides were or were not evidently co-purified with Dpy-30; “+” or “−” indicates if the peptides were or were not evidently co-purified with Dpy-30; conditions: GST-fused hAsh2 peptides, Ni-NTA pulldown, Coomassie-stained SDS-PAGE
Description: To test this, we performed pull down assays for His-Dpy-30 and GST-hAsh2593-623. The human Ash2 fragment contains a helix with two typical and three atypical ΦΦXX motifs. The hAsh2 DNA was fused downstream to GST DNA by PCR and the product was cloned into an expression vector. Three clones—#9 and #14 with the expected in-frame fusion and #6 with an out-of-frame fusion—were expressed in bacteria. Their extract was mixed with equal volume of bacterial extract with His-Dpy-30; and the mixture was subjected to Ni-NTA purification. […] Thus hAsh2593-623 interacts with Dpy-30 specifically.
Table 3 illustrates the protein sequences of hAsh2's C-terminal region (hAsh2593-623) and its variants, where “+” or “−” indicates if the peptides were or were not evidently co-purified with Dpy-30. The shorter fusion protein GST-hAsh2593-617 that terminated right after the last possible ΦΦXX-like motif, VETE (SEQ ID NO:35), in the helix was also co-purified with His-Dpy-30 (FIG. 11B, arrow and double arrowheads), no matter expressed separately or co-expressed. Both polypeptides were depleted in the flow through of Ni-NTA matrix (Post in FIG. 11B) and retained in the eluate.
as §2, §3

co-purification / pulldown with His-Dpy-30 (Dpy-30 [1])	co-purification with the Dpy-30 domain (Dpy-30 D/D (a.a. #49-99))	co-purified with Dpy-30 (Dpy-30 [2])	Substance	co-purification / pulldown with His-RIIa from RSP7 (RIIa domain from RSP7)
not			GST-RSP3280-306: GST-tagged Chlamydomonas RSP3 fragment a.a. 280-306 (PWLKEQAIGYLARGVVARRVVDKLVED; also: GST tag)	
pulled down			GST-RSP3280-316: GST-tagged Chlamydomonas RSP3 fragment a.a. 280-316 (PWLKEQAIGYLARGVVARRVVDKLVEDAAAALAANRS; also: GST tag)	
	abolished the co-purification	−	PMSDMGWGAVVEHTLADVLYH------GRRS (PMSDMGWGAVVEHTLADVLYHGRRS; also: GST fusion) [Δ614-619, GST-hAsh2593-623 with VETEVD deleted]	

Second part, the substance before the results:

Substance	co-purification / pulldown with His-Dpy-30 (Dpy-30 [1])	co-purification with the Dpy-30 domain (Dpy-30 D/D (a.a. #49-99))	co-purified with Dpy-30 (Dpy-30 [2])	co-purification / pulldown with His-RIIa from RSP7 (RIIa domain from RSP7)
GST-RSP3280-308: GST-tagged RSP3 fragment a.a. 280-308, the Dpy-30-binding amphipathic helix AHD (PWLKEQAIGYLARGVVARRVVDKLVEDAA; also: GST-tagged (fusion))	pulled down			did not significantly pull down
PMSDMGPGAVVEHTLADVLYHVETEVDGRRS [W500P]		still co-purified	−	
PMSDMGWGAVVEHTLAD----------GRRS (PMSDMGWGAVVEHTLADGRRS; also: GST fusion) [Δ610-619, GST-hAsh2593-623 with a.a. #610-619 deleted]		abolished the co-purification	−	
